Experimental data: PMC3155264 (Cell, 2011)

B1: MinE^21-88 (domain or fragment, E. coli, UniProt P0A734 21-88, looked up)
chain: RLQIIVAERRRSDAEPHYLPQLRKDILEVICKYVQIDPEMVTVQLEQKDGDISILELNVTLPEAEELK
B2: MinE^I24N*-h (domain or fragment, E. coli, UniProt P0A734 12-88, looked up)
chain: KNTANIAKERLQNIVAERRRSDAEPHYLPQLRKDILEVICKYVQIDPEMVTVQLEQKDGDISILELNVTLPEAEELK

Tests used:
SEC = biological target: the molecule itself; experiment: SEC
crystal structure = biological target: the molecule itself; experiment: crystal structure

Protein	binding result (SEC)	binding result (crystal structure)
B1	binds	
B2		binds
